{
  "source": "the RNAGym collection of RNA variant scans (doi:10.1073/pnas.2313332121)",
  "parents": {"B1": {"name": "TPR t1 (parent)", "chain": "GACCAAUCUGCCCUCAGAGCUCGAGAACAUCUUCGGAUGCAGAGGAGGCAGGCUUCGGUGGCGCGAUAGCGCCAACGUCCUCAACCUCCAAUGCAUCCCACCACAUGAUGAUGCCUGAAGAGCCUUGGUUUUUUG"}},
  "data": [
    {"variants_of": "B1", "assay": "polymerase ribozyme fitness, log enrichment relative to wild type (log ratio); higher = more active; in vitro selection for triplet polymerase activity", "in_short": "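Frozen incubation at −7 °C formed the core of a single, triplicate in vitro selection round applied to PCR-built, transcribed mutant libraries of each subunit of a heterodimeric triplet polymerase ribozyme. Extended constructs were gel-excised, captured with streptavidin beads and amplified by RT-PCR, and input and output libraries were Illumina-sequenced with a filter of ≥10 input reads and ≥1 read per output. Fitness is the logarithm of genotype enrichment relative to wild-type enrichment, with inverse-variance-weighted replicate averaging, and the logarithm is base 2.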", "values": [
      {"variant": "G10A C40A A111C", "polymerase ribozyme fitness (log ratio)": -1.11},
      {"variant": "C11G C98A", "polymerase ribozyme fitness (log ratio)": -3.33},
      {"variant": "G10A G71A A83C U106A A108U", "polymerase ribozyme fitness (log ratio)": -1.78},
      {"variant": "C11A C89U G135U", "polymerase ribozyme fitness (log ratio)": -2.46},
      {"variant": "C11A G58C C72U G122A U125A", "polymerase ribozyme fitness (log ratio)": -2.52},
      {"variant": "C11G C12U A50G G71A U133G", "polymerase ribozyme fitness (log ratio)": -4.01},
      {"variant": "G10U C11G G60C A95G", "polymerase ribozyme fitness (log ratio)": -0.947},
      {"variant": "G10U G25U C34A C99U G113C", "polymerase ribozyme fitness (log ratio)": -6.47},
      {"variant": "C11G C34G C49U U106C C115G C124G", "polymerase ribozyme fitness (log ratio)": -6.56},
      {"variant": "C11A C28G G44A C70U A121C", "polymerase ribozyme fitness (log ratio)": -4.42},
      {"variant": "C11G A46U C56U C70A C85A C104U", "polymerase ribozyme fitness (log ratio)": -6.28},
      {"variant": "C11A G45U", "polymerase ribozyme fitness (log ratio)": -2.48},
      {"variant": "C11A G19C G57U", "polymerase ribozyme fitness (log ratio)": -5.03},
      {"variant": "C11A A27U C34A C72G C97A G120U G127A U129C", "polymerase ribozyme fitness (log ratio)": -6},
      {"variant": "C11G C40A C72U C101U C104U", "polymerase ribozyme fitness (log ratio)": -1.72},
      {"variant": "C11A G71A G77A C82G", "polymerase ribozyme fitness (log ratio)": -3.86},
      {"variant": "G10A G63A", "polymerase ribozyme fitness (log ratio)": -0.758},
      {"variant": "C11A U21G A41G A121U", "polymerase ribozyme fitness (log ratio)": -0.0986},
      {"variant": "C11G C49A U81G G93U C101G U109A", "polymerase ribozyme fitness (log ratio)": -5.65},
      {"variant": "G10A G39U G42A C124A", "polymerase ribozyme fitness (log ratio)": -0.542},
      {"variant": "C11A A18U", "polymerase ribozyme fitness (log ratio)": -3},
      {"variant": "C11A A18C", "polymerase ribozyme fitness (log ratio)": -3.94},
      {"variant": "G10U C11U G71U C79U", "polymerase ribozyme fitness (log ratio)": -0.361},
      {"variant": "C11A G52C A74C A111C", "polymerase ribozyme fitness (log ratio)": -1.71},
      {"variant": "G10U U30C A37G C56U C73U", "polymerase ribozyme fitness (log ratio)": -4.17},
      {"variant": "G10U A46U C73U C88A U133A", "polymerase ribozyme fitness (log ratio)": -2.31},
      {"variant": "G10A U33C", "polymerase ribozyme fitness (log ratio)": -4.02},
      {"variant": "C11A C56U G69A C76A C79A C124A", "polymerase ribozyme fitness (log ratio)": -7.17},
      {"variant": "G10U G42U G69U C115A", "polymerase ribozyme fitness (log ratio)": -1.2},
      {"variant": "C11G A16C A37C G60U C89G C114G", "polymerase ribozyme fitness (log ratio)": -6.69},
      {"variant": "C11A C72U A75G U129A", "polymerase ribozyme fitness (log ratio)": -3.18},
      {"variant": "G10U C101A", "polymerase ribozyme fitness (log ratio)": -1.56},
      {"variant": "C11A C15A A37G C40A G120U", "polymerase ribozyme fitness (log ratio)": -6.11},
      {"variant": "G10U G47U A74G G113U C123G U126A", "polymerase ribozyme fitness (log ratio)": -3.52},
      {"variant": "C11G A16G G60A C88U C124A", "polymerase ribozyme fitness (log ratio)": -0.731},
      {"variant": "C11A A46U C64A G113U", "polymerase ribozyme fitness (log ratio)": -6.19},
      {"variant": "G10U A26U G45A", "polymerase ribozyme fitness (log ratio)": -2.84},
      {"variant": "G10A C28G G47U U59G", "polymerase ribozyme fitness (log ratio)": -5},
      {"variant": "G10A G45C C56G G63A", "polymerase ribozyme fitness (log ratio)": -4.08},
      {"variant": "G10A G63A U130G", "polymerase ribozyme fitness (log ratio)": -0.867},
      {"variant": "C11G C64U C72A C89U", "polymerase ribozyme fitness (log ratio)": -1.01},
      {"variant": "G10C C15A G39C", "polymerase ribozyme fitness (log ratio)": -4.62},
      {"variant": "G10A U14A C56G", "polymerase ribozyme fitness (log ratio)": -3.83},
      {"variant": "G10U A84G C86A", "polymerase ribozyme fitness (log ratio)": -0.969},
      {"variant": "C11A C62G", "polymerase ribozyme fitness (log ratio)": -2.04},
      {"variant": "C11A C62A", "polymerase ribozyme fitness (log ratio)": -2.86},
      {"variant": "C11A C62U", "polymerase ribozyme fitness (log ratio)": -1.47},
      {"variant": "G10C G63A", "polymerase ribozyme fitness (log ratio)": -1.49},
      {"variant": "C11G A27U C49A G61C A75U A84G", "polymerase ribozyme fitness (log ratio)": -3.81},
      {"variant": "G10C C73A G128A", "polymerase ribozyme fitness (log ratio)": -2},
      {"variant": "C11G C22G G36A C70U A83C", "polymerase ribozyme fitness (log ratio)": -5.41},
      {"variant": "G10U G39C", "polymerase ribozyme fitness (log ratio)": -0.652},
      {"variant": "C11G A66U U106G", "polymerase ribozyme fitness (log ratio)": -3.36},
      {"variant": "C11G C62A U106A", "polymerase ribozyme fitness (log ratio)": -0.272},
      {"variant": "G10U U21G A46U", "polymerase ribozyme fitness (log ratio)": -3.02},
      {"variant": "C11A A18C A43C C53U", "polymerase ribozyme fitness (log ratio)": -4.45},
      {"variant": "C11A G42U G61U C114G U130A U132G", "polymerase ribozyme fitness (log ratio)": -4.29},
      {"variant": "G10U U14A C73A A83U", "polymerase ribozyme fitness (log ratio)": -1.57},
      {"variant": "C11G A26C G77U U81A C97U G113A", "polymerase ribozyme fitness (log ratio)": -6.37},
      {"variant": "C11A A66U G71A A121C U130A", "polymerase ribozyme fitness (log ratio)": -1.61},
      {"variant": "C11A A84C C85U U87A C89G C124A", "polymerase ribozyme fitness (log ratio)": -4.77},
      {"variant": "G10U C53G C56U A74C C76A A95G G122U", "polymerase ribozyme fitness (log ratio)": -0.515},
      {"variant": "G10A C20U", "polymerase ribozyme fitness (log ratio)": -1.18},
      {"variant": "G10U A95U G128A", "polymerase ribozyme fitness (log ratio)": -3.44},
      {"variant": "C11A U38C", "polymerase ribozyme fitness (log ratio)": -2.34},
      {"variant": "C11A G51U C85U G120C", "polymerase ribozyme fitness (log ratio)": -3.38},
      {"variant": "C11G C15U G45A C73A A83U", "polymerase ribozyme fitness (log ratio)": -1.42},
      {"variant": "C11G A46U G60U A74C A121U", "polymerase ribozyme fitness (log ratio)": -3.52},
      {"variant": "C11G C73U C114U", "polymerase ribozyme fitness (log ratio)": -1.42},
      {"variant": "C11A A27G A41U C49G G61U G120A", "polymerase ribozyme fitness (log ratio)": -3.04},
      {"variant": "C11A C34G G45A C53U C70G C101A U106A G117C", "polymerase ribozyme fitness (log ratio)": -7.32},
      {"variant": "G10U C53G G61C A84U", "polymerase ribozyme fitness (log ratio)": -1.21},
      {"variant": "G10U A90G", "polymerase ribozyme fitness (log ratio)": -0.702},
      {"variant": "C11A U109A", "polymerase ribozyme fitness (log ratio)": -6.59},
      {"variant": "C11A A29U G36A C124U", "polymerase ribozyme fitness (log ratio)": -4.08},
      {"variant": "G10U C114U", "polymerase ribozyme fitness (log ratio)": -2.39},
      {"variant": "G10A C73U U78A C79U C94A", "polymerase ribozyme fitness (log ratio)": -0.0725},
      {"variant": "G10U G47U G110U G117U G122A", "polymerase ribozyme fitness (log ratio)": -4.52},
      {"variant": "G10U C22G C56U C72U A90G C114U", "polymerase ribozyme fitness (log ratio)": -3.41},
      {"variant": "G10U C20A C49U G65C C94A U109G", "polymerase ribozyme fitness (log ratio)": -7.47},
      {"variant": "C11G C79U", "polymerase ribozyme fitness (log ratio)": -0.0995},
      {"variant": "G10U C82G G110A", "polymerase ribozyme fitness (log ratio)": -1.83},
      {"variant": "C11A C70U", "polymerase ribozyme fitness (log ratio)": -2.4},
      {"variant": "C11A C70G", "polymerase ribozyme fitness (log ratio)": -3.13}
    ]}
  ]
}
